The conditions of data set [1]: solution NMR, Trp1-Hα and Trp1-Hβ shifts at pH 6.0, 7.0, 7.5, 8.0, 9.0, Henderson-Hasselbach fit; error by Monte Carlo.
Protocol: pKa values were determined by following the chemical shifts of Trp1-Hα and Trp1-Hβ at pH values of 6.0, 7.0, 7.5, 8.0 and
9.0. The 10 obtained chemical shifts were fitted to the Henderson-Hasselbach equation with the assumption that peak
position is a weighted average of the two end-point chemical shifts; optimization parameters were the two end-point shifts
(representing fully ionized and fully deionized forms of the N-terminal amino group of the peptide. Errors were determined
by Monte Carlo simulations with a measurement error of 0.01 ppm for all chemical shifts.
The target of data set [2] is Nterm1 (position 1, -----WGRGRG). As to the kind of experiment: NMR. The following applies: 300 K (general NMR methods statement; not restated for the titration), NaCl 0-0.2 M used in NMR samples, concentration for the pKa titration not given, 20 mM Tris (NMR methods), Free peptide in solution, disordered.

No end group written: not given here.

As for WGRGRGRGWPGVGF [WGR-3], the “pKa of the N-terminal amine group” value in data set [1] turned out to be 7.49 ± 0.01.
As for WGRGRGRGWY [WGR-4], in data set [1], the “pKa of the N-terminal amine group” value was found to be 7.37 ± 0.01.
For the molecule WGRGRGWPGVGY [WGR-5], the “pKa of the N-terminal amine group” value in data set [1] came out at 7.51 ± 0.01.

B1: WGR-4 designer LLPS peptide (WGR-1 without the ELP motif) (synthetic construct; del10-13) (peptide)
chain: WGRGRGRGWY
In the case of B1, in data set [2], the pKa (in general, the pH at which an ionisable group is half protonated) worked out at 7.37 ± 0.01.

B2: WGR-1 designer LLPS peptide (synthetic construct) (peptide)
chain: WGRGRGRGWPGVGY
The molecule B2 returned a pKa in data set [2] of 7.50 ± 0.01.

B3: WGR-3 designer LLPS peptide (Tyr14 to Phe variant of WGR-1) (synthetic construct; Y14F) (peptide)
chain: WGRGRGRGWPGVGF
Turning to B3, the pKa in data set [2] came to 7.49 ± 0.01.

B4: WGR-5 designer LLPS peptide (two RG dyads) (synthetic construct; deletion of one RG dyad (which of the three repeats is not specified; equivalent by sequence)) (peptide)
chain: WGRGRGWPGVGY
B4 yielded a pKa in data set [2] of 7.51 ± 0.01.

The values are drawn from PMC9879991, “Biomolecular condensates formed by designer minimalistic peptides” (Nature Communications, 2023).
